Data from the RNAGym collection of RNA variant scans (doi:10.1073/pnas.2313332121).

B1: TPR t1 (parent)
chain: GACCAAUCUGCCCUCAGAGCUCGAGAACAUCUUCGGAUGCAGAGGAGGCAGGCUUCGGUGGCGCGAUAGCGCCAACGUCCUCAACCUCCAAUGCAUCCCACCACAUGAUGAUGCCUGAAGAGCCUUGGUUUUUUG

Variants of: B1
Experiment: polymerase ribozyme fitness, log enrichment relative to wild type (log ratio); higher = more active; in vitro selection for triplet polymerase activity
Procedure, shortened: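 One round of in vitro selection, in triplicate, was applied to PCR-built, transcribed mutant libraries of each subunit of a heterodimeric triplet polymerase ribozyme. The steps were annealing with a biotinylated primer, partner subunit and triplets, incubation frozen at −7 °C, gel excision of extended constructs, streptavidin-bead capture and RT-PCR. Fitness is the logarithm, base 2, of genotype enrichment over wild-type enrichment from inverse-variance-weighted replicate averages of Illumina-sequenced inputs and outputs, keeping genotypes with ≥10 input reads and ≥1 read per output.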

| Variant | polymerase ribozyme fitness (log ratio) |
| --- | --- |
| G57C C64A C124U | -6.08 |
| A27G C70U U131A | -3.2 |
| C8G G17C C40U G61U U106A U131A | -4.28 |
| G10U G93A | -0.609 |
| C28G G45U | -4.17 |
| A2U U106G | -4.83 |
| A83U U96A | -0.525 |
| A46G A83G | -0.884 |
| A6G C28U | -0.918 |
| C13A A46C C64U U112C | -1.16 |
| C53G G117A | -1.45 |
| U32G C49A G117A | -7.02 |
| A43U C88A U109A | -6.37 |
| C8U C72U | 0.252 |
| C40U G57U C79A | -1.3 |
| C56G A66G C88U C115A | -1.71 |
| C15U A41C G45A G71C U112A G117A G127C | -4.04 |
| A37U G113U | -3.11 |
| C8G C94A C104U | 0.226 |
| G45C G77U | -1.32 |
| U38G G39U U54G U87A G113C | -3.28 |
| G10A C13A C94U U131A | -1.56 |
| A18U G71A G120A | -3.53 |
| G45A U54A C56U G57U U87G A91G G93A | -3.65 |

| Variant | polymerase ribozyme fitness (log ratio) |
| --- | --- |
| C20G C124G | -3.06 |
| C3U C79U C94U G110U | -1.77 |
| C13U A37C G57U | -0.0732 |
| C3U U9A A37U G113A | -0.314 |
| C11A G39U | -1.81 |
| C31U U129G | -5.03 |
| C86U C104U | -0.296 |
| C11G A83U U126G | -0.958 |
| G69U C104U G127A | -0.309 |
| C12A G113C U126C | -3.59 |
| A2G C8G A43G G69C C98A C123A | -7.53 |
| C3U C56G C79A C124G | -0.114 |
| C70U C85A C102A | -5.05 |
| C3U C8U G61C G120A | 0.504 |
| U32G G60A | -7.06 |
| C20U G69A G120U | -4.11 |
| A5G G17U A18G A100C A121G C124G | -3.51 |
| G47U G71U | -2.23 |
| G113A U129G | -1.7 |
| G61C C82U G117A | -2.78 |
| C85G C89U | -0.78 |
| A43G G107U G110C A118U C124A | -7.12 |
| U21C A29U C53G G61A C89U | -3.59 |
| U59C A66U C102U C124U | -4.09 |

| Variant | polymerase ribozyme fitness (log ratio) |
| --- | --- |
| U81C C115G | -2.02 |
| C11U G61C | -1.64 |
| C73G C98U U129C | -1.94 |
| C56G G107U | -5.02 |
| G110U | -1.08 |
| C34G C40U G113A C124A | -7.14 |
| C8A A50C C97G | -4.72 |
| G51U C56G | -5.36 |
| C62U C76U G120C | 0.583 |
| C12G U96C | 0.043 |
| C8U G63C | 0.00815 |
| C12U A46U C53U C79A A83U U130A | -4.07 |
| C15A G39C C114G | -4.44 |
| G47U C80A | -5.8 |
| A43C C85G | -3.37 |
| C70U G117U | -3.24 |
| G52U G61A G110U | -2 |
| C72A C76A | -1.85 |
| A50U C56A A66U G69U C80G C104G C115G C123U U130C | -8.27 |
| G36A U125G | -1.83 |
| U54A G61A | 0.266 |
| C72U C94G C101A | -2.57 |
| C12G G44U U59G | -1.39 |
| C76U C80G U96C G120C | -4.89 |

| Variant | polymerase ribozyme fitness (log ratio) |
| --- | --- |
| A103C A111U U116C | -4.99 |
| U9C G39A G63U | -1.02 |
| C11G G19U G36U A41U C53U C56A G93C C114A C124U U130A | -6.06 |
| G19C G42U G45C C79A C82G | -4.37 |
| C13U C31U A46G C72U | -4.32 |
| C12G C72G C86A U92A G110U | -4.84 |
| A43U A83U | -1.8 |
| C11U G58A U126G | -2.59 |
| G63U C86A | -2.12 |
| C28U C101A U106A | -1.04 |
| A6G C123A | 1.64 |
| A6U C53U C88U | -0.366 |
| G23A C56G C76U G110A G117A C124G | -7.16 |
| C3G C12G C40A | -3.27 |
| A2G U14G C70A C101G G120U G127C | -3.71 |
| A50U C115U | -2.37 |
| C82A U126A | -2.16 |
| U14A G60C C97G C123A | -5.56 |
| A95U U116G A118G | -2.78 |
| G63A G110U | -3.42 |
| C11U A83C G93A G120A U131C | 0.209 |
| C12A A41C U92G A111G | -2.42 |
| C13A U21A A29U | -4.11 |
| U9G C56G U81G | -1.23 |

| Variant | polymerase ribozyme fitness (log ratio) |
| --- | --- |
| A41U C53U U112G | -2.23 |
| C76U U78G | -0.0426 |
| G48U G58U G60U C82G C123U | 0.461 |
| U38G G45C G69C C101A A119U | -7.2 |
| C79U A105C | -1.36 |
| G42U G44A C70A G127U | -4.25 |
| U109A U133A | -5.88 |
| C76U A121U | 2.22 |
| A5U C49G C70G | -4.62 |
| A5G A16C A41G C62U | -2.75 |
| C79U G117A U125G | -1.82 |
| C49U A68G | -4.08 |
| C70U C73G A105U | -4.61 |
| G113C C115A | -4.21 |
| U131G U133A | -0.289 |
| A16C C79G | -4.14 |
| C8A G52A C72G | 0.47 |
| C20U G60C | -1.73 |
| G10U A75U | -0.536 |
| C76G C89U | -0.321 |
| A43U C73U C123G G127C | -1.76 |
| G47U C49G C62U C88A A95C C123A | -4.59 |
| G110A U116G | -3.5 |
| G17A C22A | -5.66 |

| Variant | polymerase ribozyme fitness (log ratio) |
| --- | --- |
| C13G G47A C88U C102U U116G C123A | -4.62 |
| A26U C53G C80U | -3.08 |
| C15A C28G | -4.4 |
| C62U C88A | -0.404 |
| C3A C72A C88G U92G G127U | -2.7 |
| C53A C72U U87A G107U | -4.92 |
| A2C U7C C15U C72U A105U | -3.49 |
| G10A U116C | -0.237 |
| C12U U32C C56G | -0.144 |
| C8A G17A C73A | -2.25 |
| C13G U78C A121C | 0.61 |
| U7G U106G G117U | -3.33 |
| G44U G47A C56A C124U G127C U131A G135C | -3.28 |
| G36U U106G | -4.55 |
| C3U G44U | -1.62 |
| C70G C123G U131C | 0.0447 |
| A16U A41G G44A G117C | -4.44 |
| G42A C70U U81A G93U | -6.73 |
| A18U G44A C94A C114A | -3.45 |
| C13G G39U G63U C115U | -5.78 |
| C22A G44U C62U U112G | -5.2 |
| C101U G113A | -1.2 |
| A90G A103U A119G | -3.56 |
| G10U C85U | -0.736 |

| Variant | polymerase ribozyme fitness (log ratio) |
| --- | --- |
| C12U C114A | -1.12 |
| U32C G48U | -1.13 |
| C22U A37U | -4.82 |
| G17U C62A | -2.83 |
| U59G A68G | -3.01 |
| G69U C80G C98A U130G | -7.2 |
| G48U U130C U133A | -0.9 |
| G17A G77A | -3.49 |
| U9G G63U C64A C88A A119G | -6.72 |
| C34G G39C G120U | -6.09 |
| A2C G71C C99A A105U A111G | -6.44 |
| U7A U116G | -1.35 |
| U7C G69A C88A | -2.92 |
| A41G G61C C94A A111U | -5.2 |
| U21A C49U G63U | -3.27 |
| C62U G107U | -4.02 |
| U14A C40A A50G A74G G117U | -5.9 |
| C64U G93C | -0.827 |
| C12A C31U | -4.6 |
| G61A A91C U96A | -1.49 |
| A6U G44A C94A | -1.69 |
| C13U C53U U92C C123G U131A | -0.0541 |
| C8G C82A A90U U92G G117U G120C | -1.01 |
